Measured values taken from paper PMC9901172.

What was measured:
[1] = biological target: Imp9•XFD488-H2A-H2B complex (human | frog) (UniProt Q96P70); assay: fluorescence polarisation
[2] = biological target: Kap114•XFD488-H2A-H2B complex (yeast | frog) (UniProt P53067); assay: fluorescence polarisation

Kd [1]: 150 nM
Kd [2]: 270 nM
Substance: yeast RanGTP (Saccharomyces cerevisiae Gsp1 residues 1-179 with Q71L) (from UniProt P32835 1-179) (domain or fragment)
